The series deals with the molecule itself. Kind of series: non-reducing SDS-PAGE with immunoblot; purified A2-G separated under non-reducing or reducing conditions, blot stained with anti-His antibodies.

B1: Recombinant RSV A2-derived G protein (extracellular domain of the attachment glycoprotein G, amino acids 66 to 298) (domain or fragment)
chain: NHKVTPTTAIIQDATSQIKNTTPTYLTQNPQLGISPSNPSEITSQITTILASTTPGVKSTLQSTTVKTKNTTTTQTQPSKPTTKQRQNKPPSKPNNDFHFEVFNFVPCSICSNNPTCWAICKRIPNKKPGKKTTTKPTKKPTLKTTKKDPKPQTTKSKEVPTTKPTEEPTINTTKTNIITTLLTSNTTGNPELTSQMETFHSTSSEGNPSPSQVSTTSEYPSQPSSPPNTPRQ
notes: Attachment glycoprotein G of respiratory syncytial virus strain A2, UniProtKB/Swiss-Prot P03423.1, extracellular domain, amino acids 66 to 298 (N66 to Q298); also called A2-G; recombinant His-tagged A2-G; not shown: His6, C-terminal, kept
Take B1: the binding result is “binds”.

These data come from article PMC7350215, “Features of the Human Antibody Response against the Respiratory Syncytial Virus Surface Glycoprotein G” (Vaccines, 2020).
